Substitutions are numbered along the chain they refer to. Numbers in names are those of the source.

B1: anti-IL-6 antibody, heavy chain I51A, G66D / light chain M32L, M50D, N52S, M88Q (antibody, IgG1, V domains shown)
VH: EVQLVESGGGLVQPGGSLRLSCAASGFTFSPFAMSWVRQAPGKGLEWVAKASPGGSWTYYSDTVTDRFTFSLDTSKSTAYLQMNSLRAEDTAVYYCARQLWGYYALDIWGQGTLVTVSS
VL: DIQLTQSPSSLSASVGDRVTITCSASISVSYLYWYQQKPGKAPKLLIYDDSSLASGVPSRFSGSGSGTDFTLTISSLQPEDFATYYCQQWSGYPYTFGQGTKVEIK
notes: Full IgG1 (Expi293); VL = variant III
B2: anti-IL-6 antibody, heavy chain I51F, G66D / light chain M32L, M50D, N52S, M88Q (antibody, IgG1, V domains shown)
VH: B1 VH with A51F
VL: B1 VL
notes: as for B1
B3: anti-IL-6 antibody, heavy chain S35D, G66D / light chain M32L, M50D, N52S, M88Q (antibody, IgG1, V domains shown)
VH: B1 VH with S35D, A51I
VL: B1 VL
notes: as for B1
B4: anti-IL-6 antibody, heavy chain I51W, G66D / light chain M32L, M50D, N52S, M88Q (antibody, IgG1, V domains shown)
VH: B1 VH with A51W
VL: B1 VL
notes: as for B1
B5: anti-IL-6 antibody, heavy chain I51S, G66D / light chain M32L, M50D, N52S, M88Q (antibody, IgG1, V domains shown)
VH: B1 VH with A51S
VL: B1 VL
notes: as for B1
B6: anti-IL-6 antibody, heavy chain I51D, G66D / light chain M32L, M50D, N52S, M88Q (antibody, IgG1, V domains shown)
VH: B1 VH with A51D
VL: B1 VL
notes: as for B1
B7: anti-IL-6 antibody, heavy chain I51Y, G66D / light chain M32L, M50D, N52S, M88Q (antibody, IgG1, V domains shown)
VH: B1 VH with A51Y
VL: B1 VL
notes: as for B1
B8: anti-IL-6 antibody, heavy chain S35G, G66D / light chain M32L, M50D, N52S, M88Q (antibody, IgG1, V domains shown)
VH: B1 VH with S35G, A51I
VL: B1 VL
notes: as for B1
B9: anti-IL-6 antibody, heavy chain S35P, G66D / light chain M32L, M50D, N52S, M88Q (antibody, IgG1, V domains shown)
VH: B1 VH with S35P, A51I
VL: B1 VL
notes: as for B1
B10: anti-IL-6 antibody, heavy chain I51Q, G66D / light chain M32L, M50D, N52S, M88Q (antibody, IgG1, V domains shown)
VH: B1 VH with A51Q
VL: B1 VL
notes: as for B1
B11: anti-IL-6 antibody, heavy chain S35I, G66D / light chain M32L, M50D, N52S, M88Q (antibody, IgG1, V domains shown)
VH: B1 VH with S35I, A51I
VL: B1 VL
notes: as for B1
B12: anti-IL-6 antibody, heavy chain I51V, G66D / light chain M32L, M50D, N52S, M88Q (antibody, IgG1, V domains shown)
VH: B1 VH with A51V
VL: B1 VL
notes: as for B1
B13: anti-IL-6 antibody, heavy chain I51R, G66D / light chain M32L, M50D, N52S, M88Q (antibody, IgG1, V domains shown)
VH: B1 VH with A51R
VL: B1 VL
notes: as for B1
B14: anti-IL-6 antibody, heavy chain I51G, G66D / light chain M32L, M50D, N52S, M88Q (antibody, IgG1, V domains shown)
VH: B1 VH with A51G
VL: B1 VL
notes: as for B1
B15: anti-IL-6 antibody, heavy chain S35L, G66D / light chain M32L, M50D, N52S, M88Q (antibody, IgG1, V domains shown)
VH: B1 VH with S35L, A51I
VL: B1 VL
notes: as for B1
B16: anti-IL-6 antibody, heavy chain S35A, G66D / light chain M32L, M50D, N52S, M88Q (antibody, IgG1, V domains shown)
VH: B1 VH with S35A, A51I
VL: B1 VL
notes: as for B1
B17: anti-IL-6 antibody, heavy chain S35F, G66D / light chain M32L, M50D, N52S, M88Q (antibody, IgG1, V domains shown)
VH: B1 VH with S35F, A51I
VL: B1 VL
notes: as for B1
B18: anti-IL-6 antibody, heavy chain I51E, G66D / light chain M32L, M50D, N52S, M88Q (antibody, IgG1, V domains shown)
VH: B1 VH with A51E
VL: B1 VL
notes: as for B1
B19: anti-IL-6 antibody, heavy chain I51H, G66D / light chain M32L, M50D, N52S, M88Q (antibody, IgG1, V domains shown)
VH: B1 VH with A51H
VL: B1 VL
notes: as for B1
B20: anti-IL-6 antibody, heavy chain I51T, G66D / light chain M32L, M50D, N52S, M88Q (antibody, IgG1, V domains shown)
VH: B1 VH with A51T
VL: B1 VL
notes: as for B1
B21: anti-IL-6 antibody, heavy chain I51L, G66D / light chain M32L, M50D, N52S, M88Q (antibody, IgG1, V domains shown)
VH: B1 VH with A51L
VL: B1 VL
notes: as for B1
B22: anti-IL-6 antibody, heavy chain S35K, G66D / light chain M32L, M50D, N52S, M88Q (antibody, IgG1, V domains shown)
VH: B1 VH with S35K, A51I
VL: B1 VL
notes: as for B1
B23: anti-IL-6 antibody, heavy chain I51K, G66D / light chain M32L, M50D, N52S, M88Q (antibody, IgG1, V domains shown)
VH: B1 VH with A51K
VL: B1 VL
notes: as for B1
B24: anti-IL-6 antibody, heavy chain S35E, G66D / light chain M32L, M50D, N52S, M88Q (antibody, IgG1, V domains shown)
VH: B1 VH with S35E, A51I
VL: B1 VL
notes: as for B1
B25: Anti-IL-6 antibody, heavy chain S35H, G66D, Q99Y / light chain WT (antibody, IgG1, V domains shown)
VH: B1 VH with S35H, A51I, Q99Y
VL: B1 VL with L32M, D50M, S52N, Q88M
notes: IgG1; variable domains only
B26: Anti-IL-6 antibody, heavy chain S35H, G66D, Q99V / light chain M32L, M50D, N52S, M88Q (antibody, IgG1, V domains shown)
VH: B1 VH with S35H, A51I, Q99V
VL: B1 VL
notes: IgG1; variable domains only; VL is variant III
B27: Anti-IL-6 antibody, heavy chain WT / light chain M32L, M50D, N52S, M88Q (antibody, IgG1, V domains shown)
VH: B1 VH with A51I, D66G
VL: B1 VL
notes: as for B26
B28: Anti-IL-6 antibody, heavy chain S35H, G66D, Q99T / light chain WT (antibody, IgG1, V domains shown)
VH: B1 VH with S35H, A51I, Q99T
VL: B1 VL with L32M, D50M, S52N, Q88M
notes: IgG1; variable domains only
B29: Anti-IL-6 antibody, heavy chain S35H, G66D, Q99V / light chain WT (antibody, IgG1, V domains shown)
VH: B1 VH with S35H, A51I, Q99V
VL: B1 VL with L32M, D50M, S52N, Q88M
notes: IgG1; variable domains only
B30: Anti-IL-6 antibody, heavy chain S35H, G66D, Q99T / light chain M32L, M50D, N52S, M88Q (antibody, IgG1, V domains shown)
VH: B1 VH with S35H, A51I, Q99T
VL: B1 VL
notes: as for B26
B31: Anti-IL-6 antibody, heavy chain S35H, G66D, Q99Y / light chain M32L, M50D, N52S, M88Q (antibody, IgG1, V domains shown)
VH: B1 VH with S35H, A51I, Q99Y
VL: B1 VL
notes: as for B26

The target in one test is T1, human IL-6 (human, UniProt P05231 30-212).
T1 construct: IL-6 flowed over captured antibodies
Description: SPR Biacore, supernatant Ab on Protein A chip, 37 C. As to the method: Antibodies were captured on a Protein A chip (GE) by injecting 1:20 cell supernatant dilutions at 10 μL/min for 60 seconds. […] The sensor chip was regenerated by a 60 seconds injection of 10 mM Glycine pH 1.7 at the flow rate of 50 μL/min. […] For this setup, 1 μg/mL of purified antibody was injected over a Protein A chip at 10 μL/min for 25 seconds. […] The sensor chip was regenerated by a 60 seconds injection of 10 mM Glycine pH 1.7 at flow rate of 50 μL/min. Data analysis for supernatant and purified samples were performed using BIAevaluation software (GE). All sensorgrams were double reference subtracted and fit using a 1:1 Langmuir binding model.
Background: SPR reads the build-up and loss of mass on a sensor chip optically.
T1 sequence (P05231 30-212 limits assumed): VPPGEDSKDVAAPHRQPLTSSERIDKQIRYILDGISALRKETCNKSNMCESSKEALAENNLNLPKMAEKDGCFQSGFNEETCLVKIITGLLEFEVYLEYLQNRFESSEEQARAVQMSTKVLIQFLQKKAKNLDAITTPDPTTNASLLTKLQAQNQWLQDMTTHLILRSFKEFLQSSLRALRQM
Turning to B1, the Kd is 0.559 nM, the koff stood at 0.000899 s⁻¹ and the kon was found to be 1.61e+06 M⁻¹ s⁻¹.

B2 came in with a Kd of 4.45 nM, an off-rate (koff) of 0.00611 s⁻¹ and a kon of 1.37e+06 M⁻¹ s⁻¹.

The molecule B3 gave a Kd of 0.753 nM, a koff of 0.00177 s⁻¹ and an on-rate (kon) of 2.35e+06 M⁻¹ s⁻¹.

Molecule B4 showed a Kd of 4.84 nM, a koff of 0.00383 s⁻¹ and an on-rate (kon) of 791000 M⁻¹ s⁻¹.

Molecule B5 gave a Kd of 0.217 nM, a koff of 0.000401 s⁻¹ and an on-rate constant (kon) of 1.85e+06 M⁻¹ s⁻¹.

Molecule B6 came in with a dissociation constant Kd of 9.58 nM, an off-rate (koff) of 0.00799 s⁻¹ and an on-rate (kon) of 834000 M⁻¹ s⁻¹.

Take B7: the dissociation constant (Kd) turned out to be 4.04 nM, the off-rate (koff) worked out at 0.0247 s⁻¹ and the association rate constant (kon) came to 6.1e+06 M⁻¹ s⁻¹.

B8 had a dissociation constant Kd of 0.609 nM, a koff of 0.000781 s⁻¹ and a kon of 1.28e+06 M⁻¹ s⁻¹.

In turn, B9 registered a dissociation constant (Kd) of 27.1 nM, an off-rate constant (koff) of 0.00548 s⁻¹ and a kon of 202000 M⁻¹ s⁻¹.

Consider B10, for which the affinity, expressed as Kd, was 0.575 nM; the off-rate constant (koff) turned out to be 0.00113 s⁻¹; the kon turned out to be 1.96e+06 M⁻¹ s⁻¹.

As for B11, the dissociation constant Kd is 1.62 nM, the off-rate constant (koff) is 0.00147 s⁻¹ and the on-rate (kon) was 904000 M⁻¹ s⁻¹.

The molecule B12 had a Kd of 1.11 nM, a koff of 0.00195 s⁻¹ and an on-rate (kon) of 1.76e+06 M⁻¹ s⁻¹.

B13 came in with a Kd of 0.0357 nM, a koff of 5.8e-05 s⁻¹ and an on-rate constant (kon) of 1.63e+06 M⁻¹ s⁻¹.

Molecule B14 had a Kd of 0.652 nM, a koff of 0.000912 s⁻¹ and a kon of 1.4e+06 M⁻¹ s⁻¹.

The molecule B15 registered a dissociation constant (Kd) of 2.59 nM, a dissociation rate constant (koff) of 0.00243 s⁻¹ and a kon of 942000 M⁻¹ s⁻¹.

Consider B16, for which the Kd stood at 0.657 nM, the koff amounted to 0.00126 s⁻¹ and the on-rate (kon) came out at 1.93e+06 M⁻¹ s⁻¹.

Molecule B17 showed a Kd of 3.17 nM, a koff of 0.00484 s⁻¹ and a kon of 1.53e+06 M⁻¹ s⁻¹.

The molecule B18 yielded an equilibrium dissociation constant (Kd) of 2.14 nM, a koff of 0.00196 s⁻¹ and a kon of 914000 M⁻¹ s⁻¹.

On to B19, for which the Kd stood at 0.5 nM, the koff worked out at 0.00104 s⁻¹ and the kon was 2.07e+06 M⁻¹ s⁻¹.

B20 gave a dissociation constant (Kd) of 0.233 nM, a koff of 0.000478 s⁻¹ and a kon of 2.05e+06 M⁻¹ s⁻¹.

B21 displayed a Kd of 0.98 nM, a koff of 0.00161 s⁻¹ and an on-rate (kon) of 1.64e+06 M⁻¹ s⁻¹.

B22 came in with a dissociation constant Kd of 2.64 nM, a koff of 0.00346 s⁻¹ and an on-rate (kon) of 1.31e+06 M⁻¹ s⁻¹.

Molecule B23 had a dissociation constant Kd of 0.349 nM, a koff of 0.000601 s⁻¹ and an on-rate (kon) of 1.72e+06 M⁻¹ s⁻¹.

On to B24, for which binding was put at a Kd of 0.867 nM, the koff was found to be 0.00189 s⁻¹ and the association rate constant (kon) worked out at 2.18e+06 M⁻¹ s⁻¹.

For the next test, the target named is human IL-6 (human, UniProt P05231 30-212). Description: SPR Biacore, supernatant, Protein A capture, 37 C. In short, it runs like this: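 Antibodies from 1:20-diluted culture supernatant in HBS-EP+ were captured on a Protein A chip at 37 C, with 10 mM glycine pH 1.7 regeneration. Sensorgrams were double-reference subtracted and fitted to a 1:1 Langmuir model.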
Target sequence in this assay (P05231 30-212 limits assumed): as above
For the molecule B25, the Kd turned out to be 0.825 nM, the dissociation rate constant (koff) worked out at 0.00215 s⁻¹ and the kon stood at 2.6e+06 M⁻¹ s⁻¹.

In the case of B26, the equilibrium dissociation constant (Kd) was found to be 1.76 nM, the dissociation rate constant (koff) was determined as 0.0014 s⁻¹ and the on-rate constant (kon) is 794000 M⁻¹ s⁻¹.

In turn, B27 showed a dissociation constant (Kd) of 0.686 nM, a koff of 0.000631 s⁻¹ and a kon of 920000 M⁻¹ s⁻¹.

B28 came in with an equilibrium dissociation constant (Kd) of 1.31 nM, a koff of 0.00222 s⁻¹ and an on-rate (kon) of 1.69e+06 M⁻¹ s⁻¹.

For B29, the dissociation constant Kd came to 4.8 nM, the koff stood at 0.00431 s⁻¹ and the on-rate (kon) stood at 898000 M⁻¹ s⁻¹.

With B30, binding was put at a Kd of 6.51 nM, the off-rate (koff) turned out to be 0.049 s⁻¹ and the kon came to 7.52e+06 M⁻¹ s⁻¹.

Molecule B31 displayed a dissociation constant (Kd) of 2.51 nM, a koff of 0.00547 s⁻¹ and an association rate constant (kon) of 2.17e+06 M⁻¹ s⁻¹.

The term Kd denotes a measure of binding affinity in units of concentration. The low end stands for higher affinity, the high end for lower affinity. What is called koff is the rate constant with which the complex falls apart. As a reminder, the kon is a measure of how fast the partners come together.

(Values after US20240209076A1 (KODIAK SCIENCES, published 2024).)
